From the RNAGym collection of RNA variant scans (doi:10.7554/elife.80360)

B1: Hairpin Ribozyme (parent)
chain: GUCCUCUUUCACGUGCGCGUGAAAGAGAGAAGUGAACCAGAGAAACACACGUUGUGGUAUAUUACCUGGUA

Variants of: B1
Assay: self-cleavage, relative activity (ratio to wild type); higher = more cleavage; co-transcriptional

Variant	self-cleavage
GUCCUCUUUCACGUGCGCGUCAAAGAGAGAAGUGAACCAGAGAAACACACGUUGUGGUAUAUUACAUGGUA [G21C C66A]	0.27
GUCCUCUUUCACGUGCGCGUCAAAGAGAGAAGUGAACCAGAGAAACACACGUUGUGGUAUAUUACUUGGUA [G21C C66U]	0.576
GUCCUCUUUCACGUGCGCGUCAAAGAGAGGAGUGAACCAGAGAAACACACGUUGUGGUAUAUUACCUGGUA [G21C A30G]	0.22
GUCCUCUUUCACGUGCGCGUCAAAGAGAGAAGUGAACCAGAGAAACACACGUUUUGGUAUAUUACCUGGUA [G21C G54U]	0.511
GUCCUCUUUCACGUGCGCGUCAAAGAGAGAAGUGAACCAGAGAAACACACGUUAUGGUAUAUUACCUGGUA [G21C G54A]	0.392
GUCCUCUUUCACGUGCGCGUCAAAGAGAGAAGUGAACCAGAGAAACACACGUUGUUGUAUAUUACCUGGUA [G21C G56U]	0.268
GUCCUCUUUCACGUGCGCGUCAAAGAGAGAAGUGAACCAGAGAAACACACGUUGUCGUAUAUUACCUGGUA [G21C G56C]	0.209
GUCCUCUUUCACGUGCGCGUCAAAGAGAGAAGUGAACCAGAGAAACACACGUUGUGGUACAUUACCUGGUA [G21C U60C]	0.851
GUCCUCUUUCACGUGCGCGUCAAAGAGAGAAGUGAACCAGAGAAACACACGUUGUGGUAAAUUACCUGGUA [G21C U60A]	0.744
GUCCUCUUUCACGUGCGCGUCAAAGACAGAAGUGAACCAGAGAAACACACGUUGUGGUAUAUUACCUGGUA [G21C G27C]	0.134
GUCCUCUUUCACGUGCGCGUAAAAGAGAGAAGUGAACCAGAGAAACACACGUUGUGGUAUAUUACCUGAUA [G21A G69A]	0.382
GUCCUCUUUCACGUGCGCGUAAAAGAGAGAAGUGAACCAGAGAAACACACGUUGUGGUAUAUUACCUAGUA [G21A G68A]	0.151
GUCCUCUUUCACGUGCGCGUCAAAGAGUGAAGUGAACCAGAGAAACACACGUUGUGGUAUAUUACCUGGUA [G21C A28U]	0.31
GUCCUCUUUCACGUGCGCGUCAAAGAGAGAAGUGAAUCAGAGAAACACACGUUGUGGUAUAUUACCUGGUA [G21C C37U]	0.583
GUCCUCUUUCACGUGCGCGUCAAAGAGAGAAGUGAAACAGAGAAACACACGUUGUGGUAUAUUACCUGGUA [G21C C37A]	0.192
GUCCUCUUUCACGUGCGCGUCAAAGAGAGAAGUGAACCAGAGAAACACACGUUGUGGUAUAUUACCCGGUA [G21C U67C]	0.18
GUCCUCUUUCACGUGCGCGUCAAAGAGAGAAGUGAACCAGAGAAACACACGUUGUGGUAUAUUACCAGGUA [G21C U67A]	0.212
GUCCUCUUUCACGUGCGCGUAAAAGAGAGAAGUGAACCAGAGAAACACACGUUGAGGUAUAUUACCUGGUA [G21A U55A]	0.177
GUCCUCUUUCACGUGCGCGUAAAAGAGAGAAGUGAACCAGAGAAACACACGUUGUGGGAUAUUACCUGGUA [G21A U58G]	0.554

Variant	self-cleavage
GUCCUCUUUCACGUGCGCGUCAAAGAGAGAAGAGAACCAGAGAAACACACGUUGUGGUAUAUUACCUGGUA [G21C U33A]	0.133
GUCCUCUUUCACGUGCGCGUAAAAGAGAGAAGUGAACCAGAUAAACACACGUUGUGGUAUAUUACCUGGUA [G21A G42U]	0.249
GUCCUCUUUCACGUGCGCGUAAAAGAGAGAAGUGAACCAGACAAACACACGUUGUGGUAUAUUACCUGGUA [G21A G42C]	0.281
GUCCUCUUUCACGUGCGCGUAAAAGAGAGAAGUGAACCAGAAAAACACACGUUGUGGUAUAUUACCUGGUA [G21A G42A]	0.218
GUCCUCUUUCACGUGCGCGUCAAAGAGAGAAGUGAACCAGCGAAACACACGUUGUGGUAUAUUACCUGGUA [G21C A41C]	0.957
GUCCUCUUUCACGUGCGCGUCAAAGAGAGAAGUGAACCAGUGAAACACACGUUGUGGUAUAUUACCUGGUA [G21C A41U]	1.16
GUCCUCUUUCACGUGCGCGUAAAAGAGAGAAGUGAACCAGAGAAACACACGUUGUAGUAUAUUACCUGGUA [G21A G56A]	0.19
GUCCUCUUUCACGUGCGCGUAAAAGAGAGAAGUGAACCAGAGAAACACACGUUGUUGUAUAUUACCUGGUA [G21A G56U]	0.185
GUCCUCUUUCACGUGCGCGUCAAAGAGAGAAGUGUACCAGAGAAACACACGUUGUGGUAUAUUACCUGGUA [G21C A35U]	0.751
GUCCUCUUUCACGUGCGCGUCAAAGAGAGAAGUGAACCAGAGAAACACACGUUGUGGUAUAUCACCUGGUA [G21C U63C]	0.196
GUCCUCUUUCACGUGCGCGUCAAAGAGAGAAGUGAACCAGAGAAACACACGUUGUGGAAUAUUACCUGGUA [G21C U58A]	0.577
GUCCUCUUUCACGUGCGCGUCAAAGAGAGAAGUGAACCAGAGAAACACACGUUGUGGCAUAUUACCUGGUA [G21C U58C]	0.77
GUCCUCUUUCACGUGCGCGUAAAAGAGAGAAGUGAACCAGAGAAACACACGGUGUGGUAUAUUACCUGGUA [G21A U52G]	0.784
GUCCUCUUUCACGUGCGCGUCAAAGAGAGAAGUGAACCAGAGAAACAGACGUUGUGGUAUAUUACCUGGUA [G21C C48G]	0.184
GUCCUCUUUCACGUGCGCGUCAAAGAGAGAAGUGAACCAGAGAAACAUACGUUGUGGUAUAUUACCUGGUA [G21C C48U]	0.098
GUCCUCUUUCACGUGCGCGUCAAAGAGAGAAGUGAACCAGAGGAACACACGUUGUGGUAUAUUACCUGGUA [G21C A43G]	0.104
GUCCUCUUUCACGUGCGCGUCAAAGAGAGAAGUGAACCAGAGCAACACACGUUGUGGUAUAUUACCUGGUA [G21C A43C]	0.146
GUCCUCUUUCACGUGCGCGUCAAAGCGAGAAGUGAACCAGAGAAACACACGUUGUGGUAUAUUACCUGGUA [G21C A26C]	0.164
GUCCUCUUUCACGUGCGCGUAAAAGAGAGAAGUGAACCAGAGAAACACACGUUGUGGUAUAGUACCUGGUA [G21A U62G]	0.163
